Experimental data as given in paper PMC6374468 (Nature Communications, 2019).

Biological target: monomeric gp120 from isolate BaL (HIV-1 clade B, isolate BaL (clone not …, UniProt Q6TAP7, strain))
Experiment: ELISA

B1: VRC01 FR3-03 (antibody, V domains shown)
VH: QVQLVQSGGQMKKPGESMRISCRASGYEFIDCTLNWIRLAPGKRPEWMGWLKPRGGAVNYARPLQGRVTMTRQLSQDPDDPDWGTAFLELRSLTVDDTAVYFCTRGKNCDYNWDFEHWGRGTPVIVGG
VL: EIVLTQSPGTLSLSPGETAIISCRTSQYGSLAWYQQRPGQAPRLVIYSGSTRAAGIPDRFSGSRWGPDYNLTISNLESGDFGVYYCQQYEFFGQGTKVQVG
- binding result: binds
